Test results published in the DeepSol protein solubility set.

Assay: soluble on expression in E. coli; label from the status in PepcDB or PDB records
In the case of “MGSDKIHHHHHHMGSLADTLRDRRQKLARLIDFPAILWSGGSNARNFPANRFPFRASSHFLYFAGLPLPNAAIHLEAGKLTLFIDDPAPGSALWHGETPKREEIAETIGADAAKPLSELTPFLAGAATIAVQDATTWTQQSQLLNRWVLPQSQPEGIDLELTKAIVTLRLIHDAGALAELRKAATVSVAAHKAGMVATANAKIEAEVRAAMESVFIAHNMTTAYNSIVTVHGEVLHNEQYHHPLQPGDLLLADVGGETELGWAADITRTWPVSGKFSPTQRDIYDVVLAAHDTCIANILPGVEYAEIHLVGARVIAEGLVNLGILRGNPEDLVEKDAHALFFPHGIGHLLGLDVHDMEDLGDLAGYEEGKKRSDRFGLGYLRLNRPLRTGMLVTIEPGFYQVPAILNDEKIRSRYQYTVNWERLSQFADVRGIRIEDDVLVTDTGSEVLTAALPNDADTVEHLVNKI”, the “soluble on expression in E. coli” value is reported as “not soluble”.
In the case of “MSLSTGTMTLHRRLQVEYGLYQDRGRRPTMEDAHTVVSSLPIPQLEEQDEGNTTVSLFAIMDGHCGDSASYYSAAQLASKVSECWPCCMTTSSIVSSLHNAHILMDAQFLEIARSSNILAGCTCLSTVIVTEAHRIRIFTANLGDSRAILCRHGAFSAWLKFSPPSAAAEANANRLNLISFFPGSRLVIPLSLDQKPNISPDRERIEAAGAFTYPSLIKYKDKIAIRGPHRIFPGGLAVPRAIGDLPYKDMTYLNSLGVSAPLVSSDPVISIYDLTEQDEFILQACDGLWDVISSKEAAIFASVMHYIHQLARMPHKAFKKLRRPLKQILFKMGVTSYYSPTSVAVAEALCNHAKLRGSQDNVTVSVIFPEFIKSEGHHHHHH”, the “soluble on expression in E. coli” value is reported as “not soluble”.
For “MRLCDRDIEAWLDEGRLSINPRPPVERINGATVDVRLGNKFRTFRGHTAAFIDLSGPKDEVSAALDRVMSDEIVLDEGEAFYLHPGELALAVTLESVTLPADLVGWLDGRSSLARLGLMVHVTAHRIDPGWSGCIVLAFYNSGKLPLALRPGMLIGALSFEPLSGPAVRPYNRREDAKYRNQQGAVASRIDKD”, the “soluble on expression in E. coli” value was “soluble”.
With “MKIAVVGCDGFGKVHLRAMRNISGIEYYVFSRNEEKARECMKEFNAEGYFTRYEDVIKSNVDIVDLLVSHDQHYPMGVMAMKAGKHLMLEKPIARTIEEAMGLINTSKDTKRKFMVLEQFYFESSVRKAKELLPRLGNLSLIIVRSIHLYQ” the “soluble on expression in E. coli” value was “not soluble”.
For “MAHHHHHHMECGYRNEGKFHQVVLNIKEKIEKHDLSKWKDIVKPEEGPKYDEYFERLLRGGTPEKDSHEEDSNEKHTHETHDLPAEQAEETPPEVCEPPGDEKNKTEFQLNKEFFDKISNKEKFYFLLNIKEMMETSWLLAQKRLEGIKLEEKSKPVNVQDLLNYSQKIADTTCAPPECDNINDKIMHQEYYPNYHFLNFVNVEEIHLSKLFQLQKYSTVCFPPIITIQEGKDNMLAIDITCSTPHATIYYRMNDDPNEQIYNTDDKPQIRKRKKVNVYAWSVKDGHIKSRVSCISKSYKVEEDDSFPLSDNLPNKEQGEQQTGSSKMGVEANAPGKPSQITNVFKNLGFLLSRKKEKTEEPSSNGESSSEG”, the “soluble on expression in E. coli” value was “not soluble”.
With “MKTIGILGGMGPLATAELFRRIVIKTPAKRDQEHPKVIIFNNPQIPDRTAYILGKGEDPRPQLIWTAKRLEECGADFIIMPCNTAHAFVEDIRKAIKIPIISMIEETAKKVKELGFKKAGLLATTGTIVSGVYEKEFSKYGVEIMTPTEDEQKDVMRGIYEGVKAGNLKLGRELLLKTAKILEERGAECIIAGCTEVSVVLKQDDLKVPLIDPMDVIAEVAVKVALEK” the “soluble on expression in E. coli” value was “soluble”.
For “MHRSFGNLEFFRFQLSNQCPALQNIELEVPMHIERLDISEFGVEINRTSYAFQVKTDEEIDQTFDVDEFGMIDYDLVVDQNPDTILLDNRDPSNMHLELSYELQLLQNEYDRIEGLNGNDGIEDIEGLAKAREALEKRKTRYQFKYLKLMAREMGIKSQISIAREPLDQHIRFSINSPDRVPLYEEHLAYNKKIHEAQRSLLEKLFVGRPTICVKSLFIDSCFIVCIPKNMQFKVKHLSLSCNNFDEDLNAIRPLLHVSSFPLESIEVYGKWDSLDPILKTCGVLYFPGGCKIEKLLKLQNFHRKVHVNIFDALKQLPPSVKSWLENRQEIGTEYTFDISNEDQIILFLDEMKESNADRIVDEAELHVKLRMDNSTELYISYDPARDNVGRMKMKFQVQ”, the “soluble on expression in E. coli” value was “not soluble”.
With “MDHPVQLSIENPAVSMDSTGQILWAVQSEIQAVYLRSLFEQKEANDGERLTLSVKNLGSSEISPQTLAHSSNGHFFMACGDGKYIVYTYKQYDAIALKIRHYGQGLEFVWAAHPNMFAVRESATNVKIKKNFKDHKSIRSDMMLEGISGGPLLALRSNDSLCFFDWESAALVRRIEITSKSVYWSDNREMVAICGDDSFYVFKYSAEAVANATEVTEDGIEDAFKVIGEQAEAVETGFWIGDCFIFTTALTINRINHYAGGEIVTVAHVDRPLCLLGYMAEDSRVYAVDKDLNVISYELFQSDLEYQTATMRRDIGTRGGPQICRICRLPSSANLPNLPSTANFKKVDLPNLPSSANFEICRTQYNFD” the “soluble on expression in E. coli” value was “not soluble”.
For “MIYMSEIIEVIYEDGVLKPLKPLKIKGKKRLKIKIVNDDVEEFLKSMIIKKCKDIDYKKLKEAYYESFLEHHHHHH”, the “soluble on expression in E. coli” value was “not soluble”.
In the case of “MCQLDVASIGDIASYRLSPISKLRYLRHTESPKSPKSSIAIPRKRYKRYRQISRMPKNHFWKNGDISYTETHIGDIFNMPYFQISIFPISPSLSAINTTIARHEFSRRQKSQNAYFGQTHILLFTAAYSPFLEHHHHHH”, the “soluble on expression in E. coli” value is reported as “soluble”.
In the case of “SLESEGRSPIFTHLVTSLKGLWTLRAFGRQPYFETLFHKALNLHTANGGAMFSLIYKKTLKLSSRVLDKISIGQLVSLLSNNLNKFDEGGGGAINKIQDFLQKQEYKTLEYNLTTTEVVMENVTAFWEEGFGELFEKAKQNNNNRKTSNGDDSLFFSNFSLLGTPVLKDINFKIERGQLLAVAGSTGAGKTSLLMMIMGELEPSEGKIKHSGRISFCSQFSWIMPGTIKENIIFGVSYDEYRYRSVIKACQLEEDISKFAEKDNIVLGEGGITLSGGQRARISLARAVYKDADLYLLDSPFGYLDVLTEKEIFESCVCKLMANKTRILVTSKMEHLKKADKILILHEGSSYFYGTFSELQNLQPDFSSKLMG”, the “soluble on expression in E. coli” value is reported as “soluble”.
For “VSVITSEMKMELRMEGAVNGHKFVITGKGSGQPFEGIQNMDLTVIEGGPLPFAFDILTTVFDYGNRVFVKYPEEIVDYFKQSFPEGYSWERSMSYEDGGICLATNNITMKKDGSNCFVYEIRFDGVNFPANGPVMQRKTVKWEPSTEKMYVRDGVLKGDVNMALLLQGGGHYRCDFRTTYKAKKVVQLPDYHFVDHRIEITSHDKDYNKVKLYEHAKAHSGLPRLAK”, the “soluble on expression in E. coli” value was “soluble”.
For “MKPRETKLLGSIREAIEKTGLKDGMTISFHHHFREGDYVMNLVLAEIAAMGLKNISIAPSSIANVHEPLIEHIKNGVVTNITSSGLRDKVGAAISAGIMENPVVIRSHGGRARAVAAGDIHIDVAFLGAPSSDAYGNANGTKGKATCGSLGYAMVDAKYADQVVIITDTLVPYPNTPISIPQTDVDYVVEIDAIGDPDGIAKGATRFTKNPKELLIAEYAAKIITHSPYYKEGFSFQTGTGGSSLAVTRFMREQMLKDGIKASFALGGITNAMVELLEEGLVEKIIDVQDFDHPSAISLGENANHYEIDANMYASPLSKGAVINQLDTAILSALEVDTDFNVNVITGSDGVIRGASGGHSDTSMACKMSLVIAPLVRGRIPTIVEQVNTVVTPGTSVDVVVTEVGIAINPKRTDLIDCFKTLDVPQFTLEELKDKAYNIVGTPEPIKYGDKVVALIEYRDGSLIDVVRNVLEHHHHHH”, the “soluble on expression in E. coli” value was “soluble”.
For “MPMPFTRDDDYDSDPEVQAEKEMAKKDPIGFAIDSSSLTSMKKAAAAAAKDQVSTTPPNLVIGSNGGAGTIATVPRSKSQDEIVKKQKTAGQSKALKKQRSRGISGCSSRKYSGYDDEMDEDFGDDEDYDHYGGQEVFDEDEEDTFVAKK”, the “soluble on expression in E. coli” value was “not soluble”.
For “MINMEKCLLEKYNSLLEFFKNKKVIVAYSGGVDSTLISKIASDATKTLAVTVDNGFFSENVIKKAEDCAKKYNIPQKTEKIDYLNEITSKNLENRCYNCKKRIAEELKKIKNELNYDIIVDGTIYDDIFEDRPGIKAFHEENIISPLSDLKFNKNDVFEISKYLKIDIPKKDTCMATRILSAPISKENMAKSNLAEEFIKSNFHIESYLRVRYIENIAIIELTKNESEKIFDNDSIERINTELKKIGFEKVVIDLNFK”, the “soluble on expression in E. coli” value was “not soluble”.
For “MEKGYRLLERIELGEPKNCYEKVVSHKHLIESIHLHLADLLNTHSGNAMIDSEYGLPDFNDVLSNNTNLVRHIQKNITATIERFEPRLLNVEVHYREDHHNPLQLGFGIRGEVSHNGGKVPMSIDVYMGTD”, the “soluble on expression in E. coli” value was “not soluble”.
